For data set [1], the target named is T1, VgrR (Xanthomonas campestris, UniProt Q7CLQ6).
T1 construct: gene colR; full-length, C-terminal His6, pET30a in E. coli BL21(DE3), Ni-NTA purified
The data set can be described thus: phosphorylation of VgrR seen as raised VgrS affinity in MST. The class given is biochemical. The note with it: phosphodonor; indirect read-out (VgrR-VgrS binding).

Data set [2] addresses T2, VgrS (full-length, inverted membrane vesicles) (Xanthomonas campestris, UniProt Q8P666).
T2 construct: gene colS
The note with it: 100 μM ATP with 10 μCi [γ-32P]ATP, 5 mM MgCl2, pH 7.8, 28°C, labelled compound.

The target of data set [3] is VgrR (Xanthomonas campestris pv. campestris). The data set can be described thus: MST.
In data set [4] the target is phosphorylated VgrR (phosphorylated by acetyl phosphate) (Xanthomonas campestris pv. campestris). The data set can be described thus: MST.
For data set [5], the target named is VgrR (ColR), unphosphorylated (Xanthomonas campestris pv. campestris, UniProt B0RPP4 1-225). The data set can be described thus: MST; 10 mM MgCl2; EMSA: 10 mM Tris-HCl pH 7.5, 50 mM KCl, 1 mM DTT, poly(dI-dC), room temp; MST: 50 mM Tris-HCl pH 7.4, 150 mM NaCl, 10 mM MgCl2, 0.05% Tween-20. Particulars: protein: recombinant; tags: C-terminal His6 (pET30a); chain copies: 2; label: 5'-FAM on one strand.

For `CC(=O)OP(=O)(O)O` [acetyl phosphate], the “phosphorylation of VgrR seen as raised VgrS affinity in MST” value in data set [1] is given as “Phosphorylation of VgrR by acetyl phosphate significantly increased the VgrR-VgrS binding affinity”.
As for `Nc1ncnc2c1ncn2[C@@H]1O[C@H](COP(=O)(O)OP(=O)(O)OP(=O)(O)O)[C@@H](O)[C@H]1O` [ATP], the “in vitro autophosphorylation, SDS-PAGE autoradiography” value in data set [2] was “VgrS has an autokinase activity by phosphorylating itself in the presence of ATP”.
On to “VgrS, membrane-embedded, full-length (receptor)”, for which the figures for the Kd in data set [3] and in data set [4] were 4300 nM and 260 nM, respectively.

B1: PtdvA 50 bp, 5'-FAM (MST) (dsDNA)
DNA 1: GCCCGATTTCACGTCTTTCTTCTTTTTCATTAACGGGACTTTAATTCCTG
DNA 2: CAGGAATTAAAGTCCCGTTAATGAAAAAGAAGAAAGACGTGAAATCGGGC
On to B1, for which the Kd in data set [5] is 189 ± 6.22 nM.

These data come from article PMC5231390, “Two-Component Signaling System VgrRS Directly Senses Extracytoplasmic and Intracellular Iron to Control Bacterial Adaptation under Iron Depleted Stress” (PLoS Pathogens, 2016).
